Data taken from a protein production outcome set (Wang et al. 2014).

experiment: label from the status in PepcDB records

| Sequence | protein production |
| --- | --- |
| VTATETVRVRFCPSPTGTPHVGLVRTALFNWAYARHTGGTFVFRIEDTDAQRDSEESYLALLDALRWLGLDWDEGPEVGGPYGPYRQSQRAEIYRDVLARLLAAGEAYHAFSTPEEVEARHVAAGRNPKLGYDNFDRHLTDAQRAAYLAEGRQPVVRLRMPDDDLAWNDLVRGPVTFAAGSVPDFALTRASGDPLYTLVNPCDDALMKITHVLRGEDLLPSTPRQLALHQALIRIGVAERIPKFAHLPTVLGEGTKKLSKRDPQSNLFAHRDRGFIPEGLLNYLALLGWSIADDHDLFGLDEMVAAFDVADVNSSPARFDQKKADALNAEHIRMLDVGDFTVRLRDHLDTHGHHIALDEAAFAAAAELVQTRIVVLGDAWELLKFFNDDQYVIDPKAAAKELGPDGAAVLDAALAALTSVTDWTAPLIEAALKDALIEGLALKPRKAFSPIRVAATGTTVSPPLFESLELLGRDRSMQRLRAARQLVGHA | not failed |
| VTDVLLCVGNSMMGDDGAGPLLAEKCAAAPKGNWVVIDGGSAPENDIVAIRELRPTRLLIVDATDMGLNPGEIRIIDPDDIAEMFMMTTHNMPLNYLIDQLKEDIGEVIFLGIQPDIVGFYYPMTQPIKDAVETVYQRLEGWEGNGGFAQLAVEEE | not failed |
| VTEEEIHAMLEEGSVAGIIEQQEHEMVRNVFRLDDRQLGSLMVPRADIIYLDTALPLEENMKRVVESEHSRFPVCHNGLQSLLGVVNAKQLLAQTIKGGVTNLAEHLQPCVYVPETLTGMELLDHFRTSGTQMVFVVDEYGEIQGLVTLQDMLEAVTGEFA | not failed |
| VTLSSGMQALLDDKFVYLAVNQAYAEKLNLTIDQVIGKHPRDIYSKGYFESELKIYSERCLAGEIIKLEKWMRSSSGQAWFIDIEMSPYYQNDGNIYGVMVNARDIT | failed |
| VYGSEVESKIIEFTIVGADEIIAEKLGISVGDFVYKIIRLRIIHSIPTIMEHTWMPISVIPGVEVSVLEESIYSHIQNKLGLQVGTSVVRVKGIRPDDKEKQFMNLTNQDFLMRVEQVAYLTDGRTFEYSYADHLPETFEFETVITAKSYKEA | not failed |
| VYRRILLTVDEDDNTSSERAFRYATTLAHDYDVPLGICSVLESEDINIFDSLTPSKIQAKRKHVEDVVAEYVQLAEQRGVNQVEPLVYEGGDVDDVILEQVIPEFKPDLLVTGADTEFPHSKIAGAIGPRLARKAPISVIVVR | failed |
| WFMPFDNWLYQLQNADPVEISSSGFEIAVIDYSKDGSESGEYSPEEIKIMVDAGVVPVAYVNIGQAEDYRFYWKESWYTNTPEWLGEEDPAWPGNYFVKYWYNEWKEIVFSYLDRVIDQGFKGIYLDRIDSFEYWAQEGVISRRSAARKMINFVLEIAEYVRERKPDMLIIPQNGENILDFDDGQLASTVSGWAVENLFYLKTIPLEENETKSRLEYLIRLNRKGKFILSVDYVDDGSDSFENISRILDYYEKAKRNGCIPYAARSDLELDEMNVIEGIQPPEALKDYESRTYR | not failed |
| WMLGIPIGGLLAFILGGAALSVFHFGMDYTNRNEFCYSCHIGMDTIVEEYQASPHFKNAQGVIAATCSDCHVPREFFAKIALKIGATADIYHKLKGDITLDNFEAEHRPRLAAEVTQQFIENKSKQCRYCHSVDKMDFEAQGRTVARRHQMMESRDQSCIDCHAGIAHHLPISLDSPET | failed |
| WPGRDRLRHLEPLRSITQLAALLANELEASVSPDTPLLLAGHSMGAQVAFETCRLLEQRGLAPQGLIISGCHAPHLHSERQLSHRDDADFIAELIDIGGCSPELRENQELMSLFLPLLRADFYATESYHYDSPDVCPPLRTPALLLCGSHDREASWQQVDAWRQWLSHVTGPVVIDGDHFYPIQQARSFFTQIVRHFP | failed |
| WPIWTRRSDGTLSFANAAYARATDASDAADAIGRNLELLDSGDRAALARALGDGYEYSGRLPIVVGGERRYYDVRALKVSGGSAGIAVDATETAALGAALERMADAHRRTLDQLSSGVAVFDAQRRLSFYNDSYRKLWDL | failed |
| WYENYRWFFTSEGFLVIGGRTAEMNEEIVAKHLESLDLFFHTQTPGAPAVILKRGQEAGEESIREAAEFAATYSALWKEGKHAGEVYYVLPEQVSKSAKAGEYLPK | failed |
| YALTEGEDYLVLDKPIPQEQPGKIEVLEFFGYFCVHCHHFDPLLLKLGKALPSDTYLRTEHVVWRPEMLGLARMAAAVKLSGLKYQANSAVFKAVYEQKIRLENRAVAGKWALSQKGFDGKKLMRAYDSPEAAAVALKMQKLTEQYGIDSTPTVIVGGKYRVIFNNGFDGGVHTIKELVAK | failed |
| YDFIDNPGFDESHSLTEMREAFLSFFEDRDHERIDPYPVAANRWRDDVLLTQASIYDFQPLVTSGTTPPPANPLCISQPCIRMQDIDNVGKTGRHTMAFEMMAHHAFNAREDIEDPEQYAYEGEVYWKNETVQYCDELFEEMGANLDEIVYIEDPWVGGGNAGPAIEVIYRGAELATLVFMSMEQDSDGEYEMKDGNRYSPMDTYIVDTGYGLERWTWMSQGTPTVYEAVYPDMIAFLKDNAGIELTDEEERIVHEAAKLAGRMDI | failed |
| YDQVTRIIGVAKDITDQIEASESLRDSEQRYRMLAESISDVIFSTDSKLSLNYVSPSVHAVLGYDVEWIFQNGWQSTIANPQQLSGIYTLMDRVSKALDKPEQLAQLRSQVQTQLFLFDCLRADGRKIPIELRLVLVWDEHGAFEGVLGVGRDISQQRRAEKDLRMAATVFEHSTS | failed |
| YENFIIAGHKEPDGDCIGSCLAMSFFLKRKNKNCILMSAGPFKRTEIKEYEHLFTDKLKISDKINPKTTGLIILDCSNFDRVGEIAELISGFNYIIIDHHATNTEKSDTSLIMPEAPSTTYLIQSIIEEIGEKLTKEEADALFFGLCTDTGFFRHLDAGSAEVFAHASRLIEAG | failed |
| YGNVWPWKSYEHVVAIAGGIGIPPIKALIEDMQGHTSLDKLTVLYGARSPSDIVYRSEIETWKEEMDFRITVDKGDENWRGHVGVVTTLVPEIKEYNHGAAFVIGPPVMMKFSVKSLLDAGFAEDNIYLSLERRMECG | failed |
| YLGPQGTFTHQAAVNAAQELARFEPQGFDLMPMDDVPQILDAAQHGDGWGIVAWENNVEGYVVPNLDALIDAKDLVGFARVGVNVEFDAYVAQGADPAEARIATAHPHGLAQCKRFIAEHRLSTQPATSNAAACRDLIPGEIAFGPAICGELYDITRIGTAIQDYQGAATDFLVLSPRAE | failed |
| YLKLVRIYTKPKGQLPDYTSPVVLPYSRTTVEDFCMKIHKNLIKEFKYALVWGLSVKHNPQKVGKDHTLEDEDVIQIVKK | not failed |
| YLSPMAHWLMPVAGGPNIEKMLNLLPALFSLYPEENNPQLLISKVYLPRQSQRYDPFYDLKNLAERWSEQLQRPIIPIPVCSTSIADALSDLAEMRECAAIVLGASREGLLKNVIHGNLPTQIASQTNTTVFIFRGPVDSPNEEAIVPPLAPDFGLDE | failed |
| YNPWRNPEGALKRRNTVLNNMLVMGYLSQSQYDEEVARPLGVVSKPTLGPAKFPDFLDIVRRQLRAEYQESDLTNQGL | failed |
| YRALFEHAIDGIFIMDAEGHYLDVNPAICSAIGYTRDEFLALDWGVLSRGVDSGWAAASLARIVGGEPLREERTVWTRNGDQLTVELSAHLLPDGKILGIARDVS | not failed |
| YTCSFVGHFSAGKSTLINLLIEQDILPSSPVPTTSNTAIVSVSDNHDIIANLPNQTYAKLSNYDEVREMNRQNVDVESVEINFQSAKFENGFTLQDTPGVDSNVASHQSITEQYMYTSNMIFYTVDYNHVQSELNFKFMKHINDVGIPVVFIINQIDKHQDDELS | failed |
| YTDESGLSELVNAAGEKLQDLELMGQKNAVRDFFKELIADSGKVAYGESQVRANLEINSVDVLLLSEDLRAERVTTKCSVCGYENKWTRRWKPGEPAPAAGNCPKCGSSLEVTDVTDIVDEFSELADKSNAKVVFVSTDFDEGSQLMNAFGGIAAILRYNTGV | not failed |
| YTEQPIDLVPTQPLPNASFDNFKLTCSNTKFADDLNQMTGFTKPASRELSVTFFPDLNGDVVAIDYRHYSASFKKGAKLLHKPIVWHINQATTKTTFKPNTWCLRCLWSTKPVDT | not failed |
| YTPMSDLGQQGLFDITRTLLQQPDLASLSEALSQLVKRSALADSAGIVLWQAQSQRAQYYATRENGRPVEYEDETVLAHGPVRRILSRPDALHCNFHEFTETWPQLAASGLYPEFGHCCLLPLAAEGRIFGGCEFIRQEDR | failed |
| YVTSQIHAKGSDLAKLMQIAALKGNEEVLDVATGGGHVANAFAPFVKKVVAFDLTEDILKVARAFIEGNGHQQVEYVQGDAEQLPFTDERFHIVTCRIAAHHFPNPASFVSEAYRVLKKGGQLLLVDNSAPENDAFDVFYNYVEKERDYSHHRAWKKSDWLKMLEEAGFELEELHCFHKTFIFEDWCDRMNVTTEKKQELSDFIKSKPTEYYQKFKIVVEDGRVYSFRGESILMKARKPTVKNKGSS | not failed |
